Target: T1, His-p97 F539A (human, UniProt P55072 1-806, F539A)
T1 construct: Homohexamer in the cryo-EM structure; also called F539A (D2); D2 mutant
Experiment: cross-linking; purified p97 F539A (1.26 mg/mL) and its adaptor (0.66 mg/mL) in 50mM HEPES pH 7.5, 30mM KCl, 10, 50 or 100 μM DTSSP, 30 min room temperature; trypsin, LC-MS/MS
Conditions: both partners purified

T1 sequence (P55072 whole entry F539A): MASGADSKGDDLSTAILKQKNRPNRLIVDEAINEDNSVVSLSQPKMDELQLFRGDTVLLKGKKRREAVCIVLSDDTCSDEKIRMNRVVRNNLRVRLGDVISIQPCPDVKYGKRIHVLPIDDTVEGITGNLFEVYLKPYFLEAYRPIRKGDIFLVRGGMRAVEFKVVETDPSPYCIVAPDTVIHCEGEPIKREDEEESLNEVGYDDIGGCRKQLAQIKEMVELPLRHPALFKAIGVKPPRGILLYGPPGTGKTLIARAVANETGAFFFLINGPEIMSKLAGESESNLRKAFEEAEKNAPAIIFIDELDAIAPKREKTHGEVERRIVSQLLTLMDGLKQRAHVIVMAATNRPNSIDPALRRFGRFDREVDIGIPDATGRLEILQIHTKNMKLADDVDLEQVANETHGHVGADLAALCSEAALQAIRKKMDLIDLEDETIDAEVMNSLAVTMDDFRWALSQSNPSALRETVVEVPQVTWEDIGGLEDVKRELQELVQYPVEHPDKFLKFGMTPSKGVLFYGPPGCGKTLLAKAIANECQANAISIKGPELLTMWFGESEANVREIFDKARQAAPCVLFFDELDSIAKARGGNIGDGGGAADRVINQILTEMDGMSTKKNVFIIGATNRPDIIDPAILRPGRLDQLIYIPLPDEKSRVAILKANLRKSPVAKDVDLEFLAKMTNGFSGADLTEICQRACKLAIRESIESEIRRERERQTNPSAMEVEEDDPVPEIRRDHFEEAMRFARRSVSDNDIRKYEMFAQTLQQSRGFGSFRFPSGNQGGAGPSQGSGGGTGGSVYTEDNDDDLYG

B1: Npl4 (untagged) (natural protein, rat, UniProt Q9ES54 1-608, looked up)
chain: MAESIIIRVQSPDGVKRITATKRETAATFLKKVAKEFGFQNNGFSVYINRNKTGEITASSSKSLHLLKIKHGDLLFLFPSSLAGPSSEMETSTSVGLKAFGAPHVVEDEIDQYLSKQDGKIYRSRDPQLCRHGPLGKCVHCVPLEPFDEDYLNHLEPPVKHMSFHAYIRKLTGGADKGKFVALENISCKIKSGCEGHLPWPNGICTKCQPSAITLNRQKYRHVDNIMFENHTVADRFLDFWRKTGNQHFGYLYGRYTEHKDIPLGIRAEVAAIYEPPQIGTQNSLELLEDPKAEVVDEIASKLGLRKVGWIFTDLVSEDTRKGTVRYSRNKDTYFLSSEECITAGDFQNKHPNICRLSPDGHFGSKFVTAVATGGPDNQVHFEGYQVSNQCMALVRDECLLPCKDAPELGYAKESSSEQYVPDVFYKDIDKFGNEITQLARPLPVEYLIIDITTTFPKDPVYTFSISQNPFPIENRDVLGETQDFHSLATYLSQNTSSVFLDTISDFHLLLFLVTNEVMPLQDSISLLLEAVRTRNEELAQTWKKSEQWATIEQLCSTVGVQLPGLHEFGAVGGSARAATSAMWACQHCTFMNQPGTGHCEMCSLPRT
notes: Npl4, untagged, expressed from pET30-Npl4; the cross-linking data were searched against rat Npl4; In the cryo-EM and cross-linking experiments Npl4 stood as part of the Ufd1/Npl4 heterodimer; source: E. coli BL21 (DE3), in lysate
Q: Does B1 bind?
A: binds

— publication PMC11214410 (iScience, 2024)
